How the values were obtained:
Assay type in all cases: biochemical
[1] = Enzyme activity with pNP-acylesters of different chain length; details: substrate pNP-caproate (C6); 4 mM, 45° C., pH 7.2
Method: Enzyme activity tests were performed by incubating the enzyme with 4 mM substrate at 45° C. in 100 mM Tris-HCl buffer at pH 7.2, unless otherwise indicated. The reaction was measured at 410 nm. One unit is defined as the amount of enzyme catalyzing the appearance of 1 μmol of free p-nitrophenol/min. Enzyme activity against pNP-acylesters (butyrate, valerate, caproate, octanoate, decanoate and palmitate) was tested under the above conditions. […] The enzyme according to SEQ ID NO: 6 converted pNP-caproate with a specific activity of 80.0 U/mg.

[2] = Titration assay with triglycerides; details: 10 mM, 37° C., pH 7.0
Method: (§1) Enzyme activities on the substrates triacetin, tripropionin, tributyrin, tricaprylene, trilaurin and vinyl-substrates (vinyl-acetate, ˜propionate, ˜butyrate, ˜caproate, ˜caprylate and ˜laurate) were determined using a standard titration assay with minor modifications. Tests were performed with a Methrom 718 STAT potentiometric titrator (Herisau, Switzerland) and by using 10 mM NaOH for titration. The substrates at 10 mM concentration were emulsified in 20 ml reaction buffer containing 2 mM Tris/HCl pH 7.0. After addition of 7.5 μg of the purified enzyme the NaOH consumption was recorded at a reaction temperature of 37° C. One unit was defined as the amount of enzyme that released […] of fatty acid per min.

[3] = Titration assay with vinyl acid esters; details: 10 mM, 37° C., pH 7.0
Method: as §1

[4] = Enantioselectivity, GC analysis of hydrolysis of acetic acid esters
Method: To assay the activity of the enzymes on a range of acetic acid esters gas chromatography was used. The samples were analyzed for the production of chiral alcohols by the gas chromatograph GC-17A (Shimadzu, Duisburg, Germany) equipped with FID detector and CP-Chirasil-DEX CB (Chrompack (Middelburg, Netherlands), 25 m×0.25 mm ID) at a helium flow of 1.3 ml/min. The temperature programme included: 5 min at 60° C., followed by an increase of 5° C. per min until 190° C. was reached. For the GC analysis, activity-tests were run in 1 M Tris buffered solutions and using 10 mM substrates dissolved in DMSO as 0.1 M stock solutions. 2 μg of the enzyme were added and tests incubated over night before the corresponding alcohols could be extracted by treatment with acetic acid ethyl ester and analyzed by GC.

[5] = substrate Acetic acid ester of tetrahydronaphthylamin
[6] = substrate acetic acid ester of (+/−)-1-octin-3-ol, 10 mM, over night
[7] = substrate acetic acid ester of phenylethylamin
[8] = substrate cis-3,5-diacetoxy-1-cyclopenten
[9] = substrate cis-3,5-diacetoxy-1-cyclopenten, conversion for the preferred enantiomer
[10] = substrate isopropylidenglycerolacetate (rac.), values marked ^1: substrate conversion after 12 h

B1: EstCL1: recombinant enzyme having carboxyl esterase activity, amino acid sequence SEQ ID NO: 6, family IV of bacterial lipolytic enzymes (protein)
chain: MTDPYVRPDVAMFLAFLNNAPGPKLHELSAPEARMVQNAMRDMADAPVGELAVMRDLEIPGPAGTIMARLYDKQPGRGSGPAMVFFHGGGFVIGNIHTYEPFCAEVARLLDLPVISVEYRLGPESPFPAAFEDCEAAARWVASKPEALGFDVSGLILSGDSAGGNLTISTSMALRDVAAGVPVIAQMPIYPVVTLDPDWPSMRDFADGYLLTAELIQWFGDGHGASGEDYRTHPLDFDQSGMPPTVITTASLDPLRDQGMAYFEKLKAAGVRAEHISAEGNIHGHINVRKGIPSSQQDVEGYVTALTAMLAGVMAEA
modifications: metagenomic sequence
specific activity [1]: 80.0 U/mg
specific activity ([2]; substrate triacetin (C2)): 120 U/mg
specific activity ([2]; substrate tributyrin (C4)): 330 U/mg
specific activity ([2]; substrate tricaprylin (C8)): 0 U/mg
specific activity ([2]; substrate trilaurin (C12)): 0 U/mg
specific activity ([2]; substrate tripropionin (C3)): 200 U/mg
specific activity ([3]; substrate vinyl acetate (C2)): 0 U/mg
specific activity ([3]; substrate vinyl butyrate (C4)): 550 U/mg
specific activity ([3]; substrate vinyl caprylate (C8)): 80 U/mg
specific activity ([3]; substrate vinyl laurinate (C12)): 0 U/mg
specific activity ([3]; substrate vinyl propionate (C3)): 173 U/mg
conversion % of 1.e [4, 5]: 0%
conversion % of 2.e [4, 5]: 0%
conversion % of 1.e [4, 6]: 0%
conversion % of 2.e [4, 6]: 0%
conversion % of 1.e [4, 7]: 0%
conversion % of 2.e [4, 7]: 0%
conversion % of 2.e [4, 8]: 0%
ee % [4, 8]: 100%
conversion % of 1.e [4, 9]: 100%
ee % ([4]; substrate isopropylidenglycerolacetate (rac.)): 100%
conversion % of 1.e [4, 10]: 0%
conversion % of 2.e [4, 10]: 35%
conversion % of 1.e ([4]; substrate menthylacetate, 1. enantiomer (+)): 0%
conversion % of 2.e ([4]; substrate menthylacetate, 2.e. (−)): 0%

B2: EstCL2: recombinant enzyme having carboxyl esterase activity, amino acid sequence SEQ ID NO: 8, family V of bacterial lipolytic enzymes (protein)
chain: MKRKTIFSRLSFAALGLFAVATIALDAKAATTCPAGAICRYEEAPGSYSGNGPYTVRSYTLSRLQTPGGATVYYPSNARPPFSGVVFTPPYTGIQSMFAAWGPFFASHGIVMVTMDTNTTLDTVDQRASQQKQVLDALKRENTRSASALYGKLNTARLGAVGWSMGGGATWINSAEYAGLKSAMSLAGHNLTTVDIDSRGGNTRIPTLILNGALDLTYLGGLGQSDGVYNNIRSGVPKVFYEVSSAGHFAWGSPTSANRAVAGIALAFHKTFLDGDTRWVSYIKRPSSDVSKWATASLPQ
modifications: metagenomic sequence
conversion % of 2.e [4, 8]: 0%
conversion % of 1.e [4, 9]: 100%
ee % ([4]; substrate cis-3,5-diacetoxy-1-cyclopenten, listed as EstCl2): 76.3%
ee % ([4]; substrate cis-3,5-diacetoxy-1-cyclopenten, listed as SEQ ID NO: 8): 76%

Source: US8956838B2, “Carboxyl esterase polypeptides” (B.R.A.I.N., priority 2006, dated 2015)
